In the supplement of paper PMC10724198:
± gives the standard deviation of the averaged measurements.

System: Saccharomyces cerevisiae
Experiment: protein stability index of tFT-peptide fusion (C-terminal peptide) (PSI (0-1 scale)); higher = more stable (slower turnover)
Conditions: genetic background: wild type; temperature: 30 C
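Further: PSI is a weighted mean of sequencing reads over stability bins, variants kept only with over 10 reads, mCherry proximal and sfGFP distal, peptide attached via GGGS linker.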

Sequence	protein stability index
ALLPVLPSRPAP	0.7431 ± 0.0046
GRLGSTRRPPSG	0.701 ± 0.0095
SLSIFTSFLVLF	0.598 ± 0.021
GRSPMGDGGFFS	0.7284 ± 0.0034
LLFFSSCLDCFV	0.635 ± 0.026
PPPPLLRSPLHL	0.731 ± 0.011
VGGGRFCGCLVV	0.767 ± 0.015
CVLLGSTIPAIV	0.645 ± 0.043
TCERGGQIKCRV	0.657 ± 0.058
VWVCGLGGGVLG	0.777 ± 0.021
VGWRGTGCGRVW	0.688 ± 0.074
PPPRPICCALNS	0.655 ± 0.014
GGLGLVESVFVI	0.67 ± 0.052
EKVGAGVRLAWN	0.695 ± 0.003
LAGRARLVMCPR	0.639 ± 0.0068
SSPLWCFRLVFF	0.583 ± 0.015
CGMIQDKCEGEI	0.738 ± 0.049
LLLSALLLSASP	0.625 ± 0.0083
HQRGGPLPSSRR	0.739 ± 0.12
SHPPPPPSPPPR	0.6922 ± 0.0051
SPPPLPHPPAAS	0.698 ± 0.023
RSLGLVGWGFWG	0.762 ± 0.12
TGMRRLPGEVCV	0.581 ± 0.017
PPLAPDPPPRVY	0.654 ± 0.013
IQAVHYTARVPN	0.664 ± 0.072

Sequence	protein stability index
SCFFFSWIRGFC	0.598 ± 0.032
AGGGARLGVGRA	0.637 ± 0.065
LLSSIPSLMFYY	0.667 ± 0.046
CFDALLPEELSS	0.696 ± 0.044
PGDFSWAQCLFP	0.752 ± 0.048
GGARGEDRRAYV	0.668 ± 0.054
YSSLLLPPLLLF	0.621 ± 0.025
FTGYPKHTRLPY	0.687 ± 0.017
HGVTPFFSSSPR	0.632 ± 0.012
GGGGFQVAVGCR	0.714
LDGLLVCSNWPA	0.805 ± 0.07
CLRGGGAGDGAS	0.673 ± 0.048
FILLFGCFGFFC	0.557 ± 0.051
PGMTILETTIMD	0.691 ± 0.015
AGHILSDGTYLP	0.826 ± 0.13
SRPLPLPPRPLP	0.647 ± 0.023
GFRWGYIGGWRW	0.741 ± 0.01
RSVPHPGGPSPC	0.649 ± 0.037
GAGRGKEREYRP	0.61356 ± 0.00019
WERGGGGRVCGW	0.754 ± 0.02
CLLAPSSLASPI	0.66 ± 0.043
LPPSPPLPCPLL	0.75 ± 0.048
KKERINNDLPGS	0.619 ± 0.026
GYGSSVYAVQKL	0.608 ± 0.0096
RKLDRDLTPESF	0.666 ± 0.048

Sequence	protein stability index
PAVPPGGDPTCP	0.689 ± 0.0085
PSPPLPPPYPLP	0.716 ± 0.084
SWFCSWVVRFFR	0.691 ± 0.065
YYRLLACQRPSR	0.679 ± 0.027
ADLTTPHPDPRP	0.674 ± 0.0096
SMRFLGIKLKKY	0.648 ± 0.023
GWLGVRVCLAQR	0.616 ± 0.0081
VSEEFAGSGTKS	0.67 ± 0.064
PAASPVDEKVRL	0.633 ± 0.016
SMASQLSQRGSD	0.641 ± 0.076
LLPHLLVLLPSS	0.623 ± 0.0049
GPALCPVWATYG	0.591 ± 0.0086
HHVDLHLSLPSP	0.649 ± 0.032
RFPFSFSGFFLL	0.5532 ± 0.0033
FRIVLIRASDPS	0.625 ± 0.032
PPPSPAPLPAGP	0.682 ± 0.061
SVSRTARELREV	0.65902 ± 0.00035
KKKKKKKKQNQK	0.7 ± 0.03
PLPPVVSFALSR	0.661 ± 0.061
KSAGLKPNWSTT	0.696 ± 0.065
REVSGLTIRMVR	0.659 ± 0.03
PRLPPRSPRPPA	0.7369 ± 0.0048
RFPSSCAPLSPY	0.621 ± 0.029
IDVLTGTDAGPT	0.6278 ± 0.004
RCNKETKNKDVL	0.7348 ± 0.0054

Sequence	protein stability index
PLRKGVHTHNNK	0.632 ± 0.053
FALCLPPPSPPA	0.761 ± 0.026
LFVPAASRLAFS	0.686 ± 0.011
VAGVLVFGKVGG	0.694 ± 0.043
VWHWGRSLYLAA	0.525 ± 0.021
VCTPCEFIRTQG	0.697 ± 0.036
GEGGGLRARQKP	0.673 ± 0.057
PARSAGPLNARS	0.758 ± 0.013
TILKKKNRRNKE	0.697 ± 0.024
PLRPPPPPLAPP	0.697 ± 0.035
ESSTGYSPPLPV	0.666 ± 0.047
IRQPNHSIGPHG	0.719 ± 0.024
RPPPPPPPSPHL	0.692 ± 0.041
SFVGPFCLTLSI	0.596 ± 0.092
DCRLPSLPPCVA	0.648 ± 0.059
SFLISPFSLFSS	0.771 ± 0.051
LVLVGISCVKGR	0.597 ± 0.02
GSTNNHEVTENI	0.688 ± 0.013
FCVVVAIVPLWG	0.512 ± 0.013
RVVGGRDVRGGG	0.737 ± 0.049
LVRLVGVGLEAV	0.694 ± 0.055
PLPSPASPSPPP	0.67 ± 0.12
PPPPPRAAPPPP	0.668 ± 0.061
PEILSLDPLPSL	0.662 ± 0.018
AVCCKYFGESLF	0.864 ± 0.0098

Sequence	protein stability index
REVLYCTSMLQD	0.707 ± 0.038
QTSASSAALLRP	0.622 ± 0.042
AQAEGLYRGTAD	0.657 ± 0.011
GVAVVSGREGRG	0.7809 ± 0.0063
EVLTSRWCGLIS	0.744 ± 0.074
DQLGARSGELLR	0.697 ± 0.063
LLLPSLAPTPTA	0.654 ± 0.025
PPGPLPPLSSTP	0.661 ± 0.034
DLGLEVVSFLKF	0.741 ± 0.068
LKQHDSNESASR	0.6565 ± 0.001
IFSIRCFHSDFV	0.6486 ± 0.0028
PPPPPPPNSHPH	0.678 ± 0.021
PPLLPLSPRPPA	0.704 ± 0.089
LRERKVYLVKIK	0.575 ± 0.006
LGVGGRWVVPGA	0.722 ± 0.032
GRCHRFQWSVRR	0.681 ± 0.015
GCLFSVLQSPSV	0.721 ± 0.02
VSVWLGSARWVG	0.628 ± 0.0086
SPIIVCLFDLGF	0.654 ± 0.037
GIKQEMKYQVGK	0.665 ± 0.07
APPPSLHCLRLP	0.725 ± 0.071
PLLSLGCFPFCL	0.724 ± 0.082
SPRPSVLPPLSL	0.734 ± 0.011
ARVAPPWRSTRA	0.683 ± 0.049
GRRGGGTGAPSR	0.65 ± 0.05

Sequence	protein stability index
GSILPSGFLSFA	0.7472 ± 0.003
WSWRGMVELVEE	0.642 ± 0.069
LGPSTCPCEVQS	0.677 ± 0.015
SRRGFTHDGLKD	0.645 ± 0.032
PPGPVVPPPPPD	0.664 ± 0.027
ILFGSILGVPLL	0.661 ± 0.01
TQNRCGGPSIAL	0.634 ± 0.03
FSVGSPLSSPGI	0.713 ± 0.04
FWGCCGGVGPRG	0.709 ± 0.0077
DCIAFVPRDRRS	0.614 ± 0.012
PFCVALVDVGFW	0.564 ± 0.029
YFVAVLGRCIRG	0.6519 ± 0.0011
PPSPPCHTVTSA	0.679 ± 0.054
HWRRGGRRGGDR	0.703 ± 0.1
SRRRVTSCTARG	0.729 ± 0.018
DSFSEFDSSPVI	0.727 ± 0.03
GVFGFGARLCIG	0.6782 ± 0.0043
LHAPFPHPPPPP	0.6713 ± 0.005
AIRLFFRSDARG	0.618 ± 0.014
RDMCVFSGGSGV	0.68 ± 0.048
DARGTVVEIRPG	0.72 ± 0.19
